One test concerns the target RAMP2–CLR ECD. Conditions: read-out: KI, equilibrium affinity; purified RAMP2–CLR ECD complex; ref [31]; cited from earlier work.
Another test deals with RAMP3–CLR ECD. The conditions noted are these: read-out: KI, equilibrium affinity; purified RAMP3–CLR ECD complex; ref [31]; cited from earlier work.
The target in test [1] is NLuc–CLR–RAMP3 receptor (AM2R) in COS-7 membranes (human) (UniProt Q16602). Briefly: FRET or BRET.

pKd, pKi: −log10 of the molar value.

Sequence of NLuc–CLR–RAMP3 receptor (AM2R) in COS-7 membranes (human) (Q16602 23-461, chain 1 of 2): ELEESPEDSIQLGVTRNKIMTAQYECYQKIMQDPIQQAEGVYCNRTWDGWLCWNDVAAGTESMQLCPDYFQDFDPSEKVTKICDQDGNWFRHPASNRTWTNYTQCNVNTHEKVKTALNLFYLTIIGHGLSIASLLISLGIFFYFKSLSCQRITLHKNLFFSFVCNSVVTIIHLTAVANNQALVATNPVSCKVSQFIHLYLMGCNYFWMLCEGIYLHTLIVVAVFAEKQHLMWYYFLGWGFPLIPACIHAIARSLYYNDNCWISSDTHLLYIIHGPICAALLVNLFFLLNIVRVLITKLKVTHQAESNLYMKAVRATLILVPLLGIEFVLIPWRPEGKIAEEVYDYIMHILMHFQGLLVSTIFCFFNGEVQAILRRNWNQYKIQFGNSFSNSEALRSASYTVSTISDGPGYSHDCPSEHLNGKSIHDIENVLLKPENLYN
Sequence of NLuc–CLR–RAMP3 receptor (AM2R) in COS-7 membranes (human) (O60896 24-148, chain 2 of 2, further chain): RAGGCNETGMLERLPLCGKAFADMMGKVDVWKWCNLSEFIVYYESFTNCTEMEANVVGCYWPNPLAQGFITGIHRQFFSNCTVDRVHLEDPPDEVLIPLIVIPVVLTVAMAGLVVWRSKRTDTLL

In the case of “AM2/IMD: Synthetic human peptide AM2/IMD(1–47) purchased from Bachem”, the pKi on RAMP2–CLR ECD is ~4.85; on RAMP3–CLR ECD it was ~5.70.
Regarding AM2/IMD–TAMRA (peptide), in test [1], the negative-log Kd (pKd) is 8.15, the half-life (t1/2) from the off-rate of the association kinetics worked out at 41 min, the half-life of the fast component of dissociation was determined as 7 min and the half-life of the slow component of dissociation was determined as 76 min.
For AM–TAMRA (peptide), in that order: 7.59, 2.6 min, 0.75 min and 6.9 min.

The values above are taken from publication PMC10248883 (The Journal of Biological Chemistry, 2023).
